Source: publication PMC6292511

How the values were obtained:
DMA-1::RFP (C. elegans) = experiment: single molecule pull-down
[1] = target: DMA-1::GFPnovo2 (C. elegans); experiment: FRET or BRET

| percent of DMA-1::RFP speckles co-localized with HPO-30::GFP (DMA-1::RFP (C. elegans)) [%] | fraction of DMA-1::GFPnovo2 bound to HPO-30::mCherry [1] [%] | Substance |
| --- | --- | --- |
| 56.1 | – | HPO-30::GFP (natural protein) |
| – | 30 | HPO-30::mCherry (natural protein) |
